# In US20210139559A1 (XL PROTEIN, published 2021):
# Biological target: T1, human VEGF165 ligand (human, UniProt P15692-4 27-191)
# T1 construct: also called VEGF-A165
# Assay: serial dilution mixed with 50 pM human VEGF165 in solution, unbound VEGF165 measured by ELISA
# Procedure: The amount of unbound VEGF₁₆₅ was then measured by a human VEGF-specific ELISA (Human VEGF DuoSet ELISA kit, R&D Systems, CAT. No. DY293B-05).
# Unbound human VEGF₁₆₅ or PDGF-BB was calculated using 4 parameters curve with the absorbance value. And the IC₅₀ of the tested fusion proteins and the reference was calculated using 4 parameters curve with unbound human VEGF₁₆₅ or PDGF-BB.
# T1 sequence (P15692 other isoform, or with tags, fused parts or gaps limits assumed): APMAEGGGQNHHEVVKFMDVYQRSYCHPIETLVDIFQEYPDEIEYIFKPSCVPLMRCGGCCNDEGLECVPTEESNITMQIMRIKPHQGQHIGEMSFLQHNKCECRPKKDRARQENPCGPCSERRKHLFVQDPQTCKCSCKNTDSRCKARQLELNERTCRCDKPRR
row,Binder,IC50 [nM]
1,"PDGFRαD123-(GGGGS)3-PAS(600)-(GGGGS)3-VEGFR1D2/R2D3 (receptor, also called EPS1114P) QLSLPSILPNENEKVVQLNSSFSLRCFGESEVSWQYPMSEEESSDVEIRNEENNSGLFVTVLEVSSASAAHTGLYTCYYNHTQTEENELEGRHIYIYVPDPDVAFVPLGMTDYLVIVEDDDSAIIPCRTTDPETPVTLHNSEGVVPASYDSRQGFNGTFTVGPYICEATVKGKKFQTIPFNVYALKATSELDLEMEALKTVYKSGETIVVTCAVFNNEVVDLQWTYPGEVKGKGITMLEEIKVPSIKLVYTLTVPEATVKDSGDYECAARQATREVKEMKKVTISVHEKGGGGGSGGGGSGGGGSASPAAPAPASPAAPAPSAPAASPAAPAPASPAAPAPSAPAASPAAPAPASPAAPAPSAPAASPAAPAPASPAAPAPSAPAASPAAPAPASPAAPAPSAPAASPAAPAPASPAAPAPSAPAASPAAPAPASPAAPAPSAPAASPAAPAPASPAAPAPSAPAASPAAPAPASPAAPAPSAPAASPAAPAPASPAAPAPSAPAASPAAPAPASPAAPAPSAPAASPAAPAPASPAAPAPSAPAASPAAPAPASPAAPAPSAPAASPAAPAPASPAAPAPSAPAASPAAPAPASPAAPAPSAPAASPAAPAPASPAAPAPSAPAASPAAPAPASPAAPAPSAPAASPAAPAPASPAAPAPSAPAASPAAPAPASPAAPAPSAPAASPAAPAPASPAAPAPSAPAASPAAPAPASPAAPAPSAPAASPAAPAPASPAAPAPSAPAASPAAPAPASPAAPAPSAPAASPAAPAPASPAAPAPSAPAASPAAPAPASPAAPAPSAPAASPAAPAPASPAAPAPSAPAASPAAPAPASPAAPAPSAPAASPAAPAPASPAAPAPSAPAASPAAPAPASPAAPAPSAPAASPAAPAPASPAAPAPSAPAAGGGGSGGGGSGGGGSSDTGRPFVEMYSEIPEIIHMTEGRELVIPCRVTSPNITVTLKKFPLDTLIPDGKRIIWDSRKGFIISNATYKEIGLLTCEATVNGHLYKTNYLTHRQTNTIIDVVLSPSHGIELSVGEKLVLNCTARTELNVGIDFNWEYPSSKHQHKKLVNRDLKTQSGSEMKKFLSTLTIDGVTRSDQGLYTCAASSGLMTKKNSTFVRVHEKHHHHHH",0.506
2,"PDGFRαD123-PAS(600)-VEGFR1D2/R2D3 (receptor, also called EPS1113P) QLSLPSILPNENEKVVQLNSSFSLRCFGESEVSWQYPMSEEESSDVEIRNEENNSGLFVTVLEVSSASAAHTGLYTCYYNHTQTEENELEGRHIYIYVPDPDVAFVPLGMTDYLVIVEDDDSAIIPCRTTDPETPVTLHNSEGVVPASYDSRQGFNGTFTVGPYICEATVKGKKFQTIPFNVYALKATSELDLEMEALKTVYKSGETIVVTCAVFNNEVVDLQWTYPGEVKGKGITMLEEIKVPSIKLVYTLTVPEATVKDSGDYECAARQATREVKEMKKVTISVHEKGASPAAPAPASPAAPAPSAPAASPAAPAPASPAAPAPSAPAASPAAPAPASPAAPAPSAPAASPAAPAPASPAAPAPSAPAASPAAPAPASPAAPAPSAPAASPAAPAPASPAAPAPSAPAASPAAPAPASPAAPAPSAPAASPAAPAPASPAAPAPSAPAASPAAPAPASPAAPAPSAPAASPAAPAPASPAAPAPSAPAASPAAPAPASPAAPAPSAPAASPAAPAPASPAAPAPSAPAASPAAPAPASPAAPAPSAPAASPAAPAPASPAAPAPSAPAASPAAPAPASPAAPAPSAPAASPAAPAPASPAAPAPSAPAASPAAPAPASPAAPAPSAPAASPAAPAPASPAAPAPSAPAASPAAPAPASPAAPAPSAPAASPAAPAPASPAAPAPSAPAASPAAPAPASPAAPAPSAPAASPAAPAPASPAAPAPSAPAASPAAPAPASPAAPAPSAPAASPAAPAPASPAAPAPSAPAASPAAPAPASPAAPAPSAPAASPAAPAPASPAAPAPSAPAASPAAPAPASPAAPAPSAPAASPAAPAPASPAAPAPSAPAASPAAPAPASPAAPAPSAPAASPAAPAPASPAAPAPSAPAASDTGRPFVEMYSEIPEIIHMTEGRELVIPCRVTSPNITVTLKKFPLDTLIPDGKRIIWDSRKGFIISNATYKEIGLLTCEATVNGHLYKTNYLTHRQTNTIIDVVLSPSHGIELSVGEKLVLNCTARTELNVGIDFNWEYPSSKHQHKKLVNRDLKTQSGSEMKKFLSTLTIDGVTRSDQGLYTCAASSGLMTKKNSTFVRVHEKHHHHHH",0.646

# Now those with a lower IC50, led by results:
row,IC50 [nM],Binder
1,0.44,"VEGFR1D2/R2D3-(GGGGS)3-PAS(600)-(GGGGS)3-PDGFRαD123 (receptor, also called EPS1115P) SDTGRPFVEMYSEIPEIIHMTEGRELVIPCRVTSPNITVTLKKFPLDTLIPDGKRIIWDSRKGFIISNATYKEIGLLTCEATVNGHLYKTNYLTHRQTNTIIDVVLSPSHGIELSVGEKLVLNCTARTELNVGIDFNWEYPSSKHQHKKLVNRDLKTQSGSEMKKFLSTLTIDGVTRSDQGLYTCAASSGLMTKKNSTFVRVHEKGGGGSGGGGSGGGGSASPAAPAPASPAAPAPSAPAASPAAPAPASPAAPAPSAPAASPAAPAPASPAAPAPSAPAASPAAPAPASPAAPAPSAPAASPAAPAPASPAAPAPSAPAASPAAPAPASPAAPAPSAPAASPAAPAPASPAAPAPSAPAASPAAPAPASPAAPAPSAPAASPAAPAPASPAAPAPSAPAASPAAPAPASPAAPAPSAPAASPAAPAPASPAAPAPSAPAASPAAPAPASPAAPAPSAPAASPAAPAPASPAAPAPSAPAASPAAPAPASPAAPAPSAPAASPAAPAPASPAAPAPSAPAASPAAPAPASPAAPAPSAPAASPAAPAPASPAAPAPSAPAASPAAPAPASPAAPAPSAPAASPAAPAPASPAAPAPSAPAASPAAPAPASPAAPAPSAPAASPAAPAPASPAAPAPSAPAASPAAPAPASPAAPAPSAPAASPAAPAPASPAAPAPSAPAASPAAPAPASPAAPAPSAPAASPAAPAPASPAAPAPSAPAASPAAPAPASPAAPAPSAPAASPAAPAPASPAAPAPSAPAASPAAPAPASPAAPAPSAPAASPAAPAPASPAAPAPSAPAASPAAPAPASPAAPAPSAPAAGGGGSGGGGSGGGGSQLSLPSILPNENEKVVQLNSSFSLRCFGESEVSWQYPMSEEESSDVEIRNEENNSGLFVTVLEVSSASAAHTGLYTCYYNHTQTEENELEGRHIYIYVPDPDVAFVPLGMTDYLVIVEDDDSAIIPCRTTDPETPVTLHNSEGVVPASYDSRQGFNGTFTVGPYICEATVKGKKFQTIPFNVYALKATSELDLEMEALKTVYKSGETIVVTCAVFNNEVVDLQWTYPGEVKGKGITMLEEIKVPSIKLVYTLTVPEATVKDSGDYECAARQATREVKEMKKVTISVHEKGHHHHHH"
2,0.331,"PAS(200)-PDGFRαD123-VEGFR1D2/R2D3 (receptor, the tag stands at the N-terminus; also called EPS1110P) HHHHHHASPAAPAPASPAAPAPSAPAASPAAPAPASPAAPAPSAPAASPAAPAPASPAAPAPSAPAASPAAPAPASPAAPAPSAPAASPAAPAPASPAAPAPSAPAASPAAPAPASPAAPAPSAPAASPAAPAPASPAAPAPSAPAASPAAPAPASPAAPAPSAPAASPAAPAPASPAAPAPSAPAASPAAPAPASPAAPAPSAPAQLSLPSILPNENEKVVQLNSSFSLRCFGESEVSWQYPMSEEESSDVEIRNEENNSGLFVTVLEVSSASAAHTGLYTCYYNHTQTEENELEGRHIYIYVPDPDVAFVPLGMTDYLVIVEDDDSAIIPCRTTDPETPVTLHNSEGVVPASYDSRQGFNGTFTVGPYICEATVKGKKFQTIPFNVYALKATSELDLEMEALKTVYKSGETIVVTCAVFNNEVVDLQWTYPGEVKGKGITMLEEIKVPSIKLVYTLTVPEATVKDSGDYECAARQATREVKEMKKVTISVHEKGSDTGRPFVEMYSEIPEIIHMTEGRELVIPCRVTSPNITVTLKKFPLDTLIPDGKRIIWDSRKGFIISNATYKEIGLLTCEATVNGHLYKTNYLTHRQTNTIIDVVLSPSHGIELSVGEKLVLNCTARTELNVGIDFNWEYPSSKHQHKKLVNRDLKTQSGSEMKKFLSTLTIDGVTRSDQGLYTCAASSGLMTKKNSTFVRVHEK"
